Measured values: patent US20240085427A1 (published 2024)

Experiments:
[1] = target: Anterior Gradient 2 (AGR2) (UniProt O95994); experiment: cell-based or functional assay
[2] = target: T1, Anterior Gradient 2 (AGR2) (UniProt O95994 21-175); experiment: ELISA
T1 chain: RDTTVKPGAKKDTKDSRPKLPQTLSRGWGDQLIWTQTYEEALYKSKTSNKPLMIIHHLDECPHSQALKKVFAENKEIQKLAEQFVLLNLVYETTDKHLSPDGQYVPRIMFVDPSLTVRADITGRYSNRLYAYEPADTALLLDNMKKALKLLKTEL

[3] = target: T2, Anterior Gradient 2 (AGR2) (UniProt O95994 21-175, limits assumed); experiment: cell-based or functional assay
T2 sequence (looked up): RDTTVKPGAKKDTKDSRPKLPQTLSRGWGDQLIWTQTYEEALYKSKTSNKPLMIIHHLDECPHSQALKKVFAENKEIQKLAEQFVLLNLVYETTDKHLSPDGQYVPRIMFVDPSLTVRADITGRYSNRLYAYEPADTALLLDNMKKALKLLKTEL

[4] = target: T3, bovine serum albumin (BSA) (bovine, UniProt P02769 25-607); experiment: ELISA on coated plates (FIG. 6A)
T3 construct: Control coating in ELISA; also called control (BSA)
T3 sequence (P02769 25-607 limits assumed): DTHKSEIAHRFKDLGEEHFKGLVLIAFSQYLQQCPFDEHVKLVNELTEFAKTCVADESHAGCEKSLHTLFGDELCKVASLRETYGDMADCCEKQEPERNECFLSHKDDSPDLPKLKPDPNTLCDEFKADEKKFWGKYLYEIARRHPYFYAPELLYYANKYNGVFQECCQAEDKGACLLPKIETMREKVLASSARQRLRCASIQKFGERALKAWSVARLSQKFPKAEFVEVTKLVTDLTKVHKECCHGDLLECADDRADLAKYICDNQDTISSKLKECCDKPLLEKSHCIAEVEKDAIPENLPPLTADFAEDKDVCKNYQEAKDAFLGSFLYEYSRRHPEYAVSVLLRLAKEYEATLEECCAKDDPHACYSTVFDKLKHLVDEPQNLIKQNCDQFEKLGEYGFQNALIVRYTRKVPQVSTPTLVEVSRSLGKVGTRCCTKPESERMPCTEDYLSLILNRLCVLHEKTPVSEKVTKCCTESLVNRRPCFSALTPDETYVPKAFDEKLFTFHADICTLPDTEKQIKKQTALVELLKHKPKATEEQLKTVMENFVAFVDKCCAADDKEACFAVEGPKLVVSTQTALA

[5] = target: T1, Anterior Gradient 2 (AGR2); experiment: BLI (Octet)
[6] = target: T2, Anterior Gradient 2 (AGR2); experiment: ELISA and SPR (so in the source); purified scFv on AGR2
[7] = target: T2, Anterior Gradient 2 (AGR2); experiment: ELISA and SPR (so in the source); the same KD in mass units

B1: human targeted AGR2xCD3 BiTE (anti-AGR2 scFv clone-15 linked to anti-CD3 scFv derived from Orthoclone OKT3) (bispecific antibody, part only; not given: anti-CD3 scFv, linker, His tag, not shown: small tags and cut ends)
chain, part: EVQLLESGGGLVQPGGSLRLSCAASGFTFSSYAMSWVRQAPGKGLEWVSGISAQGAHTTYADSVKGRFTISRDNSKNTLYLQMNSLRAEDTAVYYCAKTYKGFDYWGQGTLVTVSSGGGGSGGGGSGGGGSTDIQMTQSPSSLSASVGDRVTITCRASQSISSYLNWYQQKPGKAPKLLIYSASRLQSGVPSRFSGSGSGTDFTLTISSLQPEDFATYYCQQGRRMPPTFGQGTKVEIKEVQLLESGGGLVQPGGSLRLSCAASGFTFSSYAMSWVRQAPGKGLEWVSGISAQGAHTTYADSVKGRFTISRDNSKNTLYLQMNSLRAEDTAVYYCAKTYKGFDYWGQGTLVTVSSGGGGSGGGGSGGGGSTDIQMTQSPSSLSASVGDRVTITCRASQSISSYLNWYQQKPGKAPKLLIYSASRLQSGVPSRFSGSGSGTDFTLTISSLQPEDFATYYCQQGRRMPPTFGQGTKVEIK
[1]
  EC50 on Capan1 cell viability, BiTE alone (no PBMCs): 16.5 µM

B2: anti-AGR2 scFv clone 26 (scFv)
scFv: EVQLLESGGGLVQPGGSLRLSCAASGFTFSSYAMSWVRQAPGKGLEWVSSIQGQGRITRYADSVKGRFTISRDNSKNTLYLQMNSLRAEDTAVYYCAKRAIMFDYWGQGTLVTVSSGGGGSGGGGSGGGGSTDIQMTQSPSSLSASVGDRVTITCRASQSISSYLNWYQQKPGKAPKLLIYHASLLQSGVPSRFSGSGSGTDFTLTISSLQPEDFATYYCQQARYWPLTFGQGTKVEIK
[2]
  EC50: > 100 µg/mL

B3: anti-AGR2 scFv clone 19 (scFv)
scFv: EVQLLESGGGLVQPGGSLRLSCAASGFTFSSYAMSWVRQAPGKGLEWVSAIASQGVATGYADSVKGRFTISRDNSKNTLYLQMNSLRAEDTAVYYCAKLDQHFDYWGQGTLVTVSSGGGGSGGGGSGGGGSTDIQMTQSPSSLSASVGDRVTITCRASQSISSYLNWYQQKPGKAPKLLIYQASRLQSGVPSRFSGSGSGTDFTLTISSLQPEDFATYYCQQARRLPLTFGQGTKVEIK
[2]
  EC50: > 100 µg/mL

B4: anti-AGR2 scFv clone-15 (scFv)
scFv: EVQLLESGGGLVQPGGSLRLSCAASGFTFSSYAMSWVRQAPGKGLEWVSGISAQGAHTTYADSVKGRFTISRDNSKNTLYLQMNSLRAEDTAVYYCAKTYKGFDYWGQGTLVTVSSGGGGSGGGGSGGGGSTDIQMTQSPSSLSASVGDRVTITCRASQSISSYLNWYQQKPGKAPKLLIYSASRLQSGVPSRFSGSGSGTDFTLTISSLQPEDFATYYCQQGRRMPPTFGQGTKVEIK
notes: Found by phage display, cloned into pET22b, produced and purified in BL21(DE3) E. coli; also called AGR2-scFv-15; scFv-15
[3]
  EC50 in the same TDCC assay (Capan1 cells with human PBMCs), scFv alone as comparator: 19.8 µM
[4]
  binding result: no binding
[5]
  Kd: 1.57 nM
[6]
  Kd: 180 nM
[7]
  Kd: 4.69 µg/mL
